In IntAct's records for PubMed 24705553:

B1: Autophagy-related protein 19 (Saccharomyces cerevisiae), P35193 (parent)
chain: MNNSKTNQQMNTSMGYPLTVYDECNKFQLIVPTLDANIMLWCIGQLSLLNDSNGCKHLFWQPNDKSNVRILLNNYDYGHLFKYLQCQRKCSVYIGEGTLKKYNLTISTSFDNFLDLTPSEEKESLCREDAHEDPVSPKAGSEEEISPNSTSNVVVSRECLDNFMKQLLKLEESLNKLELEQKVTNKEPNHRISGTIDIPEDRSELVNFFTELKTVKQLEDVFQRYHDYERLSQECDSKTEIASDHSKKETKIEVEPPNERSLQITMNQRDNSLYFQLFNNTNSVLAGNCKLKFTDAGDKPTTQIIDMGPHEIGIKEYKEYRYFPYALDLEAGSTIEIENQYGEVIFLGKYGSSPMINLRPPSRLSAESLQASQEPFYSFQIDTLPELDDSSIISTSISLSYDGDDNEKALTWEEL
partner: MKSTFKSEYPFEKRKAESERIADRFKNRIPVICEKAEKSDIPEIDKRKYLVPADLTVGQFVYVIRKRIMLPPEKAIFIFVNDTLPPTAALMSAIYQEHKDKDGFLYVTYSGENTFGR
B2: Autophagy-related protein 34 (Saccharomyces cerevisiae), Q12292 (parent)
chain: MKIAVETTLFDFFVIDQFKKSTFSAPNTKVDTIKGCINKFIEQFNVYDEQHIFWQPPGKSNVRLLSNANDFGQLGNFLHKKIKCNIFIGEEALRKYDLNICGPYDKFVENSDPSVKKVVNRDDVMLSRKCLNIISEQLSILEKSISKAQNQVLQSSEVEGKKCIILPEDKPELIKFFSKFETSVQLQEVYEGYKVYEKLLQKFGGQKKRMESFLNENTPMSGAEAIKQINISEELKEKGERLTTPNDPLLHVEVSNEDNSLHFILYNKTNIIIPGNCTFEFSSQISEVFSIKMGPHEIGIKGQKELWFFPSLPTPLSNYTMKVVNQDGETILVGKCADSNEITLKSPLASFSTGSFQTGSFHTLQDPTNVFRADALSSPDESSIMSTPFLGETDEVYNSGSTLSRPFTWEEI
partner: B1 partner

Variants of: B1
Conditions: with atg8_yeast ATG8, P38182

effect of a mutation on the interaction	Variant
decreasing interaction strength	MNNSKTNQQMNTSMGYPLTVYDECNKFQLIVPTLDANIMLWCIGQLSLLNDSNGCKHLFWQPNDKSNVRILLNNYDYGHLFKYLQCQRKCSVYIGEGTLKKYNLTISTSFDNFLDLTPSEEKESLCREDAHEDPVSPKAGSEEEISPNSTSNVVVSRECLDNFMKQLLKLEESLNKLELEQKVTNKEPNHRISGTIDIPEDRSELVNFFTELKTVKQLEDVFQRYHDYERLSQECDSKTEIASDHSKKETKIEVEPPNERSLQITMNQRDNSLYFQLFNNTNSVLAGNCKLKFTDAGDKPTTQIIDMGPHEIGIKEYKEYRYFPYALDLEAGSTIEIENQYGEVIFLGKYGSSPMINLRPPSRLSAESLQASQEPAYSAQIDTLPELDDSSIISTSISLSYDGDDNEKALTAEEL [F376A;F379A;W412A]
decreasing interaction strength	MNNSKTNQQMNTSMGYPLTVYDECNKFQLIVPTLDANIMLWCIGQLSLLNDSNGCKHLFWQPNDKSNVRILLNNYDYGHLFKYLQCQRKCSVYIGEGTLKKYNLTISTSFDNFLDLTPSEEKESLCREDAHEDPVSPKAGSEEEISPNSTSNVVVSRECLDNFMKQLLKLEESLNKLELEQKVTNKEPNHRISGTIDIPEDRSELVNFFTELKTVKQLEDVFQRYHDYERLSQECDSKTEIASDHSKKETKIEVEPPNERSLQITMNQRDNSLYFQLFNNTNSVLAGNCKLKFTDAGDKPTTQIIDMGPHEIGIKEYKEYRYFPYALDLEAGSTIEIENQYGEVIFLGKYGSSPMINLRPPSRLSAESLQASQEPAYSAQIDTLPELDDSSIISTSISLSYDGDDNEKALTWEEL [F376A;F379A]
decreasing interaction strength	MNNSKTNQQMNTSMGYPLTVYDECNKFQLIVPTLDANIMLWCIGQLSLLNDSNGCKHLFWQPNDKSNVRILLNNYDYGHLFKYLQCQRKCSVYIGEGTLKKYNLTISTSFDNFLDLTPSEEKESLCREDAHEDPVSPKAGSEEEISPNSTSNVVVSRECLDNFMKQLLKLEESLNKLELEQKVTNKEPNHRISGTIDIPEDRSELVNFFTELKTVKQLEDVFQRYHDYERLSQECDSKTEIASDHSKKETKIEVEPPNERSLQITMNQRDNSLYFQLFNNTNSVLAGNCKLKFTDAGDKPTTQIIDMGPHEIGIKEYKEYRYFPYALDLEAGSTIEIENQYGEVIFLGKYGSSPMINLRPPSRLSAESLQASQEPAYSAQIDTLAALDDSSIISTSISLSYDGDDNEKALTAEEL [F376A;F379A;P385A;E386A;W412A]

Variants of: B1
Conditions: with atg8_yeast ATG8, P38182
Remark: another data set of the same source

effect of a mutation on the interaction	Variant
disrupting interaction strength	MNNSKTNQQMNTSMGYPLTVYDECNKFQLIVPTLDANIMLWCIGQLSLLNDSNGCKHLFWQPNDKSNVRILLNNYDYGHLFKYLQCQRKCSVYIGEGTLKKYNLTISTSFDNFLDLTPSEEKESLCREDAHEDPVSPKAGSEEEISPNSTSNVVVSRECLDNFMKQLLKLEESLNKLELEQKVTNKEPNHRISGTIDIPEDRSELVNFFTELKTVKQLEDVFQRYHDYERLSQECDSKTEIASDHSKKETKIEVEPPNERSLQITMNQRDNSLYFQLFNNTNSVLAGNCKLKFTDAGDKPTTQIIDMGPHEIGIKEYKEYRYFPYALDLEAGSTIEIENQYGEVIFLGKYGSSPMINLRPPSRLSAESLQASQEPAYSAQIDTLPELDDSSIISTSISLSYDGDDNEKALTAEEL [F376A;F379A;W412A]

Variants of: B1
Conditions: with atg8_yeast ATG8, P38182
Remark: another data set of the same source

effect of a mutation on the interaction	Variant
decreasing interaction strength	MNNSKTNQQMNTSMGYPLTVYDECNKFQLIVPTLDANIMLWCIGQLSLLNDSNGCKHLFWQPNDKSNVRILLNNYDYGHLFKYLQCQRKCSVYIGEGTLKKYNLTISTSFDNFLDLTPSEEKESLCREDAHEDPVSPKAGSEEEISPNSTSNVVVSRECLDNFMKQLLKLEESLNKLELEQKVTNKEPNHRISGTIDIPEDRSELVNFFTELKTVKQLEDVFQRYHDYERLSQECDSKTEIASDHSKKETKIEVEPPNERSLQITMNQRDNSLYFQLFNNTNSVLAGNCKLKFTDAGDKPTTQIIDMGPHEIGIKEYKEYRYFPYALDLEAGSTIEIENQYGEVIFLGKYGSSPMINLRPPSRLSAESLQASQEPFYSFQIDTLAALDDSSIISTSISLSYDGDDNEKALTAEEL [P385A;E386A;W412A]
decreasing interaction strength	MNNSKTNQQMNTSMGYPLTVYDECNKFQLIVPTLDANIMLWCIGQLSLLNDSNGCKHLFWQPNDKSNVRILLNNYDYGHLFKYLQCQRKCSVYIGEGTLKKYNLTISTSFDNFLDLTPSEEKESLCREDAHEDPVSPKAGSEEEISPNSTSNVVVSRECLDNFMKQLLKLEESLNKLELEQKVTNKEPNHRISGTIDIPEDRSELVNFFTELKTVKQLEDVFQRYHDYERLSQECDSKTEIASDHSKKETKIEVEPPNERSLQITMNQRDNSLYFQLFNNTNSVLAGNCKLKFTDAGDKPTTQIIDMGPHEIGIKEYKEYRYFPYALDLEAGSTIEIENQYGEVIFLGKYGSSPMINLRPPSRLSAESLQASQEPFYSAQIDTLPELDDSSIISTSISLSYDGDDNEKALTAEEL [F379A;W412A]
disrupting interaction strength	MNNSKTNQQMNTSMGYPLTVYDECNKFQLIVPTLDANIMLWCIGQLSLLNDSNGCKHLFWQPNDKSNVRILLNNYDYGHLFKYLQCQRKCSVYIGEGTLKKYNLTISTSFDNFLDLTPSEEKESLCREDAHEDPVSPKAGSEEEISPNSTSNVVVSRECLDNFMKQLLKLEESLNKLELEQKVTNKEPNHRISGTIDIPEDRSELVNFFTELKTVKQLEDVFQRYHDYERLSQECDSKTEIASDHSKKETKIEVEPPNERSLQITMNQRDNSLYFQLFNNTNSVLAGNCKLKFTDAGDKPTTQIIDMGPHEIGIKEYKEYRYFPYALDLEAGSTIEIENQYGEVIFLGKYGSSPMINLRPPSRLSAESLQASQEPAYSAQIDTLAALDDSSIISTSISLSYDGDDNEKALTAEEL [F376A;F379A;P385A;E386A;W412A]

Variants of: B1
Conditions: with atg8_yeast ATG8, P38182
Remark: another data set of the same source

effect of a mutation on the interaction	Variant
decreasing interaction strength	MNNSKTNQQMNTSMGYPLTVYDECNKFQLIVPTLDANIMLWCIGQLSLLNDSNGCKHLFWQPNDKSNVRILLNNYDYGHLFKYLQCQRKCSVYIGEGTLKKYNLTISTSFDNFLDLTPSEEKESLCREDAHEDPVSPKAGSEEEISPNSTSNVVVSRECLDNFMKQLLKLEESLNKLELEQKVTNKEPNHRISGTIDIPEDRSELVNFFTELKTVKQLEDVFQRYHDYERLSQECDSKTEIASDHSKKETKIEVEPPNERSLQITMNQRDNSLYFQLFNNTNSVLAGNCKLKFTDAGDKPTTQIIDMGPHEIGIKEYKEYRYFPYALDLEAGSTIEIENQYGEVIFLGKYGSSPMINLRPPSRLSAESLQASQEPFYSFQIDTLPELDDSSIISTSISLSYDGDDNEKALTAEEL [W412A]

Variants of: B2
Conditions: with atg8_yeast ATG8, P38182

effect of a mutation on the interaction	Variant
disrupting interaction strength	MKIAVETTLFDFFVIDQFKKSTFSAPNTKVDTIKGCINKFIEQFNVYDEQHIFWQPPGKSNVRLLSNANDFGQLGNFLHKKIKCNIFIGEEALRKYDLNICGPYDKFVENSDPSVKKVVNRDDVMLSRKCLNIISEQLSILEKSISKAQNQVLQSSEVEGKKCIILPEDKPELIKFFSKFETSVQLQEVYEGYKVYEKLLQKFGGQKKRMESFLNENTPMSGAEAIKQINISEELKEKGERLTTPNDPLLHVEVSNEDNSLHFILYNKTNIIIPGNCTFEFSSQISEVFSIKMGPHEIGIKGQKELWFFPSLPTPLSNYTMKVVNQDGETILVGKCADSNEITLKSPLASFSTGSFQTGSFHTLQDPTNVFRADALSSPDESSIMSTPFLGETDEVYNSGSTLSRPFTAEEI [W409A]
